The values that follow come from PMC6638984, “Increased association between Epstein-Barr virus EBNA2 from type 2 strains and the transcriptional repressor BS69 restricts EBNA2 activity” (PLoS Pathogens, 2019).

Broadly, the Kd is the concentration at which binding is half-saturated. Broadly, the stoichiometry N is a count of units in the complex or per binding partner.

B1: type 2 EBNA2 motif 2 peptide (402-412) (peptide)
peptide: EPPFLFPSDWY
notes: source: synthetic peptide (Peptide Synthetics)
B2: type 2 EBNA2 polypeptide T2 EBNA2_(348-412) (domain or fragment)
chain: SMPQLSPVVSLHQGQGPENSPTPGPSTAGPVCRVTPSATPDISPIHEPESSDSEEPPFLFPSDWY
notes: also called type 2 EBNA2_(348-412); source: E. coli Rosetta 2 (DE3) pLysS, purified (cobalt resin, 3C protease cleavage, Superdex 75); not shown: His6, N-terminal, cleaved
B3: BS69 coiled-coil MYND domain (BS69_(CC-MYND), amino acids 480-602) (domain or fragment, human, UniProt Q15326 480-602, looked up)
chain: DRMKSDHKRETERVVREALEKLRSEMEEEKRQAVNKAVANMQGEMDRKCKQVKEKCKEEFVEEIKKLATQHKQLISQTKKKQWCYNCEEEAMYHCCWNTSYCSIKCQQEHWHAEHKRTCRRKR
notes: BS69 (ZMYND11), human, amino acids 480-602 comprising the coiled-coil and MYND domains, amplified from pCI-BS69 (full length, isoform 1, 602 amino acids); Dimer by SEC-MALS; Expressed from pET49b+ as a GST-6xHis fusion; the tag was cleaved with 3C protease; also called BS69 CC-MYND domain; ZMYND11; source: E. coli Rosetta 2 (DE3) pLysS, purified (cobalt resin, 3C protease cleavage, GSTrap, …)
B4: type 2 EBNA2 polypeptide T2 EBNA2_(348-422) (domain or fragment)
chain: SMPQLSPVVSLHQGQGPENSPTPGPSTAGPVCRVTPSATPDISPIHEPESSDSEEPPFLFPSDWYPPTLEPAELD
notes: EBNA2 of type 2 Epstein-Barr virus (AG876), amino acids 348-422 (motifs 1, 2 and 3), in pET47b+; also called T2 E2_(348-422); source: E. coli Rosetta 2 (DE3) pLysS, purified (HisPur cobalt resin, 3C protease cleavage, Superdex 75); not shown: His6, N-terminal, cleaved
B5: type 2 EBNA2 polypeptide T2 EBNA2_(348-422) (domain or fragment)
chain: B4 chain
notes: Monomer alone by SEC-MALS; also called T2 E2_(348-422); type 2 EBNA2_(348-422); source: E. coli Rosetta 2 (DE3) pLysS, purified (cobalt resin, 3C protease cleavage, Superdex 75); not shown: His6, N-terminal, cleaved
B6: EBNA2_(348-422) SD + m3 T1 (domain or fragment)
chain: B4 chain with S62D, T68S, L69I, E70D
notes: EBNA2 of type 2 Epstein-Barr virus (AG876), residues 348-422, with S409D and motif 3 PTLEP replaced by PSIDP; also called T2 EBNA2_(348-422) SD + m3 T1; type 2 EBNA2 double mutant (S409D, PTLEP to PSIDP); source: E. coli Rosetta 2 (DE3) pLysS, purified (cobalt resin, 3C protease cleavage, Superdex 75); not shown: His6, N-terminal, cleaved
B7: T2 EBNA2_(348-422) motif 3 mt (PTLEP to ATAEA) (domain or fragment)
chain: B4 chain with P67A, L69A, P71A
notes: EBNA2 of type 2 Epstein-Barr virus (AG876), residues 348-422, with motif 3 mutated from PTLEP to ATAEA; also called T2 E2 m3 mt; source: E. coli Rosetta 2 (DE3) pLysS, purified (cobalt resin, 3C protease cleavage, Superdex 75); not shown: His6, N-terminal, cleaved
B8: T2 EBNA2_(348-422) SD mutant (S409D) (domain or fragment)
chain: B4 chain with S62D
notes: EBNA2 of type 2 Epstein-Barr virus (AG876), residues 348-422, serine to aspartate at position 409; text and methods say position 409; source: E. coli Rosetta 2 (DE3) pLysS, purified (cobalt resin, 3C protease cleavage, Superdex 75); not shown: His6, N-terminal, cleaved
B9: T2 EBNA2_(348-422) motif 3 mt (PTLEP to ATAEA) (domain or fragment)
chain: B4 chain with P67A, L69A, P71A
notes: EBNA2 of type 2 Epstein-Barr virus (AG876), amino acids 348-422, motif 3 PTLEP_(414-418) mutated to ATAEA; also called T2 EBNA2348-422 m3 mt; source: E. coli Rosetta 2 (DE3) pLysS, purified (HisPur cobalt resin, 3C protease cleavage, Superdex 75); not shown: His6, N-terminal, cleaved
B10: T2 EBNA2_(348-422) m3 T1 (PTLEP to the type 1 sequence PSIDP) (domain or fragment)
chain: B4 chain with T68S, L69I, E70D
notes: source: E. coli Rosetta 2 (DE3) pLysS, purified (HisPur cobalt resin, 3C protease cleavage, Superdex 75); not shown: His6, N-terminal, cleaved
B11: EBNA2_(348-422) SD + m3 mt (domain or fragment)
chain: B4 chain with S62D, P67A, L69A, P71A
notes: EBNA2 of type 2 Epstein-Barr virus (AG876), residues 348-422, with S409D and motif 3 PTLEP mutated to ATAEA; also called type 2 EBNA2 double mutant (S409D, PTLEP to ATAEA); source: E. coli Rosetta 2 (DE3) pLysS, purified (cobalt resin, 3C protease cleavage, Superdex 75); not shown: His6, N-terminal, cleaved
B12: type 2 EBNA2 motif 3 peptide (T2 EBNA2_(412-422)) (peptide)
peptide: YPPTLEPAELD
notes: EBNA2 of type 2 Epstein-Barr virus (AG876), residues 412-422, holding motif 3 (PTLEP 414-418); source: synthetic peptide (Peptide Synthetics)

Where a chain is given by its changes, count along the chain named. In names and notes the source's numbering stands.

For series [1], the target named is B3. The experiment in a line: ITC; 1 mM EBNA2 peptide titrated into 0.1 mM BS69_(CC-MYND) in the cell, 25°C, 20 mM Tris-HCl, 100 mM NaCl, 1 mM TCEP, pH 7.5; one-site model with n fixed to 1. Conditions: both partners purified. Background: In ITC the heat of successive injections is recorded.
Series [2] has as its target B3. As to the kind of experiment: ITC; EBNA2 polypeptide titrated into 0.1 mM BS69_(CC-MYND) in the cell, 19 x 2.0 μl injections, 25°C, 20 mM Tris-HCl, 100 mM NaCl, 1 mM TCEP, pH 7.5; one-site (one event) model; n calculated for monomeric proteins. Conditions: both partners purified.
Series [3] deals with the molecule itself. As to the kind of experiment: SEC-MALS; individual polypeptides, 5 mg/ml, Shodex KW403-4F column, 25°C, 20 mM Tris-HCl, 100 mM NaCl, 1 mM TCEP, pH 7.5. (In general: SEC sorts molecules by how far they enter the pores of the column.)
In series [4] the target is T1, BS69 coiled-coil MYND domain (BS69_(CC-MYND), amino acids 480-602) (human, UniProt Q15326-1 480-602).
T1 construct: cloned into pET49b+; also called ZMYND11 CC-MYND; source: E. coli Rosetta 2 (DE3) pLysS, purified (HisPur cobalt resin, 3C protease cleavage, Superdex 75); not shown: GST, N-terminal, cleaved; His6, N-terminal, cleaved
T1 sequence (looked up): B3 chain
As to the kind of experiment: ITC; EBNA2 polypeptide (0.3 or 0.6 mM) titrated into 0.1 mM BS69_(CC-MYND) in the cell, 19 x 2.0 µl injections, 25°C, 20 mM Tris-HCl, 100 mM NaCl, 1 mM TCEP, pH 7.5; one-site (one event) model; n on monomer concentrations; mean of 3 experiments. Conditions: both partners purified.

The target in series [5] is B3. The experiment in a line: ITC; EBNA2 polypeptide (0.3 mM) titrated into 0.1 mM BS69_(CC-MYND) in the cell, 29 x 1.3 μl injections, 25°C, 20 mM Tris-HCl, 100 mM NaCl, 1 mM TCEP, pH 7.5; two-site (two event) model. Conditions: both partners purified.

In turn, B1 showed a Kd in series [1] of 176000 nM.
B2: in series [2], the Kd is 1210 nM, the dH is -22.5 kcal/mol and the “stoichiometry N” value was 0.33.
In series [1], EAPILFPDDWY [type 1 EBNA2 motif 2 peptide (435-445)] registered an equilibrium dissociation constant (Kd) of 47700 nM.
Consider B3, for which the “stoichiometry N” value in series [3] worked out at 2.
In the case of B4, in series [4], the affinity, expressed as Kd, was 1010 nM.
As for B5, in series [5], the “dH of the second binding event” value is -1.59 kcal/mol. Besides, in series [2], the dH was -53.2 kcal/mol and the “stoichiometry N” value is 0.15.
As to B6, the binding result in series [5] was “binds”.
With B7, in series [2], the dH is -25.7 kcal/mol and the “stoichiometry N” value was 0.3.
As for B8, the “dH of the second binding event” value in series [5] was -7.65 kcal/mol.
Turning to B9, in series [4], the Kd is 590 nM and the “stoichiometry N” value was 0.31.
For the molecule B10, in series [4], the Kd was found to be 1900 nM and the “stoichiometry N” value is 0.25.
B11: in series [5], the binding result was “binds”.
As to B12, in series [1], the Kd worked out at 219000 nM.
